Experimental data published in the supplement of paper PMC7125110.
± gives the standard error. For part of these data: This sample holds only a part of the variants without activity.

B1: glmS ribozyme (parent)
chain: AUAAAAGCGCCAGAACUACAGAAAUGUAGUUGACGAGGAGGAGGUUUAUCGAAUUUUCGGCGGAUGCCUCCAAA

What was measured:
Settings in all cases: with glucosamine-6-phosphate
glucosamine-6-phosphate [1] = variants of: B1; assay: kcat; higher = faster cleavage; RNA array
Procedure, shortened: (§1)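 Barcoded ribozyme variants on sequenced MiSeq chips were transcribed in situ by E. coli RNA polymerase and followed at 37 °C through a hybridised Cy3 probe. Glucosamine-6-phosphate at 40 μM to 10 mM in HEPES/KCl/Mg(OAc)2 buffer was flowed in, and tiles were imaged over ~14 h. Signals were normalised to baseline and to non-cleaving reference variants, and per-tile medians were fit to one- or two-exponential decays to give kobs. Weighted Michaelis–Menten fits across concentrations gave kcat and KM.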

glucosamine-6-phosphate [2] = variants of: B1; assay: self-cleavage kobs at 40 uM GlcN6P; higher = faster cleavage; RNA array
Procedure, shortened: as §1

glucosamine-6-phosphate [3] = variants of: B1; assay: self-cleavage kobs at 640 uM GlcN6P; higher = faster cleavage; RNA array
Procedure, shortened: as §1

glucosamine-6-phosphate [4] = variants of: B1; assay: KM; higher = weaker cofactor use; RNA array
Procedure, shortened: as §1

glucosamine-6-phosphate [5] = variants of: B1; assay: self-cleavage kobs at 2500 uM GlcN6P; higher = faster cleavage; RNA array
Procedure, shortened: as §1

glucosamine-6-phosphate [6] = variants of: B1; assay: self-cleavage kobs at 10000 uM GlcN6P; higher = faster cleavage; RNA array
Procedure, shortened: as §1

glucosamine-6-phosphate [7] = variants of: B1; assay: self-cleavage kobs at 160 uM GlcN6P; higher = faster cleavage; RNA array
Procedure, shortened: as §1

Variant	kcat (glucosamine-6-phosphate [1]) [s⁻¹]	self-cleavage kobs at 40 uM GlcN6P (glucosamine-6-phosphate [2]) [s⁻¹]	self-cleavage kobs at 640 uM GlcN6P (glucosamine-6-phosphate [3]) [s⁻¹]	KM (glucosamine-6-phosphate [4]) [µM]	self-cleavage kobs at 2500 uM GlcN6P (glucosamine-6-phosphate [5]) [s⁻¹]	self-cleavage kobs at 10000 uM GlcN6P (glucosamine-6-phosphate [6]) [s⁻¹]	self-cleavage kobs at 160 uM GlcN6P (glucosamine-6-phosphate [7]) [s⁻¹]
A14C A33C	< 1e-05	< 1e-05	< 1e-05	–	–	–	–
C11A A15U	6.57e-05 ± 4.8e-06	–	–	1510 ± 380	3.75e-05 ± 1.7e-05	5.85e-05 ± 1.7e-05	–
U49G A53G	0.00124 ± 0.00011	3.67e-05 ± 1.3e-05	0.000361 ± 6.3e-05	1440 ± 230	0.000714 ± 0.00011	0.00116 ± 0.00015	0.000136 ± 2.5e-05
C50G G59U C68G	8.8e-05 ± 8.6e-06	6.82e-05 ± 2.8e-05	0.000101 ± 3e-05	–	0.000102 ± 2.2e-05	7.83e-05 ± 1.5e-05	–
C61A C70U	1.28e-05 ± 2.9e-06	–	–	–	–	–	–
A12G C67U	0.000655 ± 3.4e-05	–	9.59e-05 ± 9.7e-06	3650 ± 310	0.000297 ± 5.2e-05	0.000475 ± 4.3e-05	–
A14U U57A	6.85e-05 ± 3.9e-06	–	–	2120 ± 440	3.51e-05 ± 1e-05	5.69e-05 ± 7.6e-06	–
C16G U46G	0.000671 ± 0.00023	–	0.000167 ± 4e-05	–	0.000703 ± 0.00022	0.000514 ± 0.00016	5.87e-05 ± 2.1e-05
C16A G66A	0.00167 ± 9.1e-05	–	0.000223 ± 5e-05	4130 ± 370	0.000633 ± 0.00013	0.00118 ± 0.00018	6.8e-05 ± 3.1e-05
G66U C67A	0.00338 ± 0.00094	5.28e-05 ± 1.5e-05	0.0005 ± 9.9e-05	3020 ± 1100	0.00197 ± 0.00041	0.00241 ± 0.00063	0.000188 ± 5.8e-05
U46A U56A	0.001 ± 0.00013	–	0.000307 ± 7e-05	1800 ± 490	0.000533 ± 0.00015	0.000853 ± 0.00014	–
C16A U69C	0.00012 ± 3.2e-05	–	9.93e-05 ± 2.2e-05	–	7.87e-05 ± 2.2e-05	0.000168 ± 4e-05	–
A15U U31G U47A	0.000799 ± 0.00019	–	0.000105 ± 2.5e-05	5260 ± 2100	0.000221 ± 5.7e-05	0.000537 ± 8.1e-05	–
A6C C68U	4.51e-05 ± 1.8e-06	–	–	534 ± 140	3.96e-05 ± 9.1e-06	4.19e-05 ± 6.8e-06	–
A15C G40A	0.000642 ± 0.00018	2.42e-05 ± 9.8e-06	0.000149 ± 2e-05	1860 ± 840	0.000365 ± 7.3e-05	0.000584 ± 0.00012	8.81e-05 ± 2.4e-05
